Measured values from publication PMC9482650, “Quantitative fragmentomics allow affinity mapping of interactomes” (Nature Communications, 2022).

T1: ARHGEF11, O15085
T1 sequence (O15085 42-136, limits assumed, looked up): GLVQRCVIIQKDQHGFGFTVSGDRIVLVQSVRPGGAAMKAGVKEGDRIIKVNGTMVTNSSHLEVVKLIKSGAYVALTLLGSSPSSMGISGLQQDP

T2: DFNB31_1, Q9P202
T2 sequence (Q9P202 135-233, limits assumed, looked up): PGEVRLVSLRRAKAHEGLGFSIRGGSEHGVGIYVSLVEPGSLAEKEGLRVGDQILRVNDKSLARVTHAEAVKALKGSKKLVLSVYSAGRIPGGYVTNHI

T3: GRIP1_7, Q9Y3R0
T3 sequence (Q9Y3R0 999-1096, limits assumed, looked up): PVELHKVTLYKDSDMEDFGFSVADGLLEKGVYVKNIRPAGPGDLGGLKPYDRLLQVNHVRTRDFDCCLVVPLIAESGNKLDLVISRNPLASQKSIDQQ

T4: HTRA4, P83105
T4 sequence (P83105 378-476, limits assumed, looked up): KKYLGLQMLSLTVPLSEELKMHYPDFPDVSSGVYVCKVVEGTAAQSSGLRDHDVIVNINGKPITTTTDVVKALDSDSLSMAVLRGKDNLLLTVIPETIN

T5: LIN7A, O14910
T5 sequence (O14910 103-200, limits assumed, looked up): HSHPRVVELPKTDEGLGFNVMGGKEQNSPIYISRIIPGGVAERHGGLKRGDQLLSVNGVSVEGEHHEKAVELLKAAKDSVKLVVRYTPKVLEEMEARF

T6: LNX2_2, Q8N448
T6 sequence (Q8N448 334-432, limits assumed, looked up): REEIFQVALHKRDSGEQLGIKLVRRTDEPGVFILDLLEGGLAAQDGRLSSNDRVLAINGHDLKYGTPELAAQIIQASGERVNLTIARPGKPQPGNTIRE

T7: MPDZ_10, O75970
T7 sequence (O75970 1624-1722, limits assumed, looked up): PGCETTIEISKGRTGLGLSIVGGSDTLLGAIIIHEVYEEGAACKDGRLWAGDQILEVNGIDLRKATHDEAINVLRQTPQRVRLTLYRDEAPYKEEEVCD

T8: MPP2, Q14168
T8 sequence (Q14168 180-250, limits assumed, looked up): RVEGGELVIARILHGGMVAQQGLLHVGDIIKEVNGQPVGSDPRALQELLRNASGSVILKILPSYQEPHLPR

T9: NHERF3_4, Q5T2W1
T9 sequence (Q5T2W1 373-468, limits assumed, looked up): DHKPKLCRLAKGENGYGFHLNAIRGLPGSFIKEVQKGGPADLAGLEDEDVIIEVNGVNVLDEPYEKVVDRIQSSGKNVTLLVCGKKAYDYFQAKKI

T10: PCLO, Q9Y6V0
T10 sequence (Q9Y6V0 4491-4600, limits assumed, looked up): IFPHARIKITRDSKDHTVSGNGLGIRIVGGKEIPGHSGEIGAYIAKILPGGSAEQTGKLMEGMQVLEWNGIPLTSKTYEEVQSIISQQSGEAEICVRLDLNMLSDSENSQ

T11: RADIL, Q96JH8
T11 sequence (Q96JH8 971-1071, limits assumed, looked up): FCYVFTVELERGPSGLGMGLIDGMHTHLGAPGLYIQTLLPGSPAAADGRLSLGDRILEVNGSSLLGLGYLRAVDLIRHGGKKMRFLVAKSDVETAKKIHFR

T12: TX1BP3, O14907
T12 sequence (O14907 10-122, limits assumed, looked up): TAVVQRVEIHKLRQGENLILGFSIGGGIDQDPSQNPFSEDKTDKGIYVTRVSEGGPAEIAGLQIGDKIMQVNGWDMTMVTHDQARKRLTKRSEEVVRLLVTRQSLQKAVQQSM


Target: T1, ARHGEF11, O15085
Test: holdup assay
Design: key: below the threshold = too weak to quantify, mostly under pKd 3.1 to 4
Details: plain residues with an end cap or a label only (N-terminal biotin on a linker: ado-ado)

Row | pKd | Binder
1 | below the threshold | YRLAQESGLV [ABCC6, O95255]
2 | below the threshold | RKPKPSSSCC [RAB9A, P51151]

Target: T2, DFNB31_1, Q9P202
Test: holdup assay
Design: key: below the threshold = too weak to quantify, mostly under pKd 3.1 to 4
Details: plain residues with an end cap or a label only (N-terminal biotin on a linker: ado-ado)

Row | pKd | Binder
3 | below the threshold | YRLAQESGLV [ABCC6, O95255]
4 | below the threshold | RKPKPSSSCC [RAB9A, P51151]

Target: FRMPD2_1, Q68DX3
Test: holdup assay
Design: key: below the threshold = too weak to quantify, mostly under pKd 3.1 to 4
Details: plain residues with an end cap or a label only (N-terminal biotin on a linker: ado-ado)

Chain of FRMPD2_1, Q68DX3 (Q68DX3 770-861): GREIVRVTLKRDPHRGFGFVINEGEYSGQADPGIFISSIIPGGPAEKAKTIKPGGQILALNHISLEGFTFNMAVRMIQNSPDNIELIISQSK

Row | pKd | Binder
5 | below the threshold | YRLAQESGLV [ABCC6, O95255]
6 | below the threshold | RKPKPSSSCC [RAB9A, P51151]

Target: FRMPD2_2, Q68DX3
Test: holdup assay
Design: key: below the threshold = too weak to quantify, mostly under pKd 3.1 to 4
Details: plain residues with an end cap or a label only (N-terminal biotin on a linker: ado-ado)

Chain of FRMPD2_2, Q68DX3 (Q68DX3 944-1038): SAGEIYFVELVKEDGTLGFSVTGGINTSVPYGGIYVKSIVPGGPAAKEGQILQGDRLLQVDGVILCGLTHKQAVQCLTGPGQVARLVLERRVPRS

Row | pKd | Binder
7 | below the threshold | YRLAQESGLV [ABCC6, O95255]
8 | below the threshold | RKPKPSSSCC [RAB9A, P51151]

Target: GOPC, Q9HD26
Test: holdup assay
Design: key: below the threshold = too weak to quantify, mostly under pKd 3.1 to 4
Details: plain residues with an end cap or a label only (N-terminal biotin on a linker: ado-ado)

Row | pKd | Binder
9 | below the threshold | YRLAQESGLV [ABCC6, O95255]
10 | below the threshold | RKPKPSSSCC [RAB9A, P51151]

Target: T3, GRIP1_7, Q9Y3R0
Test: holdup assay
Design: key: below the threshold = too weak to quantify, mostly under pKd 3.1 to 4
Details: plain residues with an end cap or a label only (N-terminal biotin on a linker: ado-ado)

Row | pKd | Binder
11 | below the threshold | YRLAQESGLV [ABCC6, O95255]
12 | below the threshold | RKPKPSSSCC [RAB9A, P51151]

Target: T4, HTRA4, P83105
Test: holdup assay
Design: key: below the threshold = too weak to quantify, mostly under pKd 3.1 to 4
Details: plain residues with an end cap or a label only (N-terminal biotin on a linker: ado-ado)

Row | pKd | Binder
13 | 3.79 | YRLAQESGLV [ABCC6, O95255]
14 | below the threshold | RKPKPSSSCC [RAB9A, P51151]

Target: IL16_3, Q14005
Test: holdup assay
Design: key: below the threshold = too weak to quantify, mostly under pKd 3.1 to 4
Details: plain residues with an end cap or a label only (N-terminal biotin on a linker: ado-ado)

Chain of IL16_3, Q14005 (Q14005 1107-1207): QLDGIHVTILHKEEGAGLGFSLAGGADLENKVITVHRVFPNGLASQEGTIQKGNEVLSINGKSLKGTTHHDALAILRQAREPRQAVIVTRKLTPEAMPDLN

Row | pKd | Binder
15 | below the threshold | YRLAQESGLV [ABCC6, O95255]
16 | below the threshold | RKPKPSSSCC [RAB9A, P51151]

Target: Inadl_10, Q8NI35
Test: holdup assay
Design: key: below the threshold = too weak to quantify, mostly under pKd 3.1 to 4
Details: plain residues with an end cap or a label only (N-terminal biotin on a linker: ado-ado)

Chain of Inadl_10, Q8NI35 (Q8NI35 1673-1763): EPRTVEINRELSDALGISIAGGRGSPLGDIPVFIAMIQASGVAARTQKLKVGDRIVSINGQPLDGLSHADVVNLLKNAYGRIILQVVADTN

Row | pKd | Binder
17 | below the threshold | YRLAQESGLV [ABCC6, O95255]
18 | below the threshold | RKPKPSSSCC [RAB9A, P51151]

Target: Inadl_5, Q8NI35
Test: holdup assay
Design: key: below the threshold = too weak to quantify, mostly under pKd 3.1 to 4
Details: plain residues with an end cap or a label only (N-terminal biotin on a linker: ado-ado)

Chain of Inadl_5, Q8NI35 (Q8NI35 673-780): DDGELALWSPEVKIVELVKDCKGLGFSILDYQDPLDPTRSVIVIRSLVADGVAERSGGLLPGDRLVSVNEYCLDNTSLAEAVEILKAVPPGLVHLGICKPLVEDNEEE

Row | pKd | Binder
19 | below the threshold | YRLAQESGLV [ABCC6, O95255]
20 | below the threshold | RKPKPSSSCC [RAB9A, P51151]

Target: Inadl_9, Q8NI35
Test: holdup assay
Design: key: below the threshold = too weak to quantify, mostly under pKd 3.1 to 4
Details: plain residues with an end cap or a label only (N-terminal biotin on a linker: ado-ado)

Chain of Inadl_9, Q8NI35 (Q8NI35 1530-1615): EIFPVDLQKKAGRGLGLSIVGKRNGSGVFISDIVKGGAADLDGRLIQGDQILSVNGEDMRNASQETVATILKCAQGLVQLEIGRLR

Row | pKd | Binder
21 | below the threshold | YRLAQESGLV [ABCC6, O95255]
22 | below the threshold | RKPKPSSSCC [RAB9A, P51151]

Target: T5, LIN7A, O14910
Test: holdup assay
Design: key: below the threshold = too weak to quantify, mostly under pKd 3.1 to 4
Details: plain residues with an end cap or a label only (N-terminal biotin on a linker: ado-ado)

Row | pKd | Binder
23 | below the threshold | YRLAQESGLV [ABCC6, O95255]
24 | below the threshold | RKPKPSSSCC [RAB9A, P51151]

Target: LNX1_3, Q8TBB1
Test: holdup assay
Design: key: below the threshold = too weak to quantify, mostly under pKd 3.1 to 4
Details: plain residues with an end cap or a label only (N-terminal biotin on a linker: ado-ado)

Chain of LNX1_3, Q8TBB1 (Q8TBB1 500-596): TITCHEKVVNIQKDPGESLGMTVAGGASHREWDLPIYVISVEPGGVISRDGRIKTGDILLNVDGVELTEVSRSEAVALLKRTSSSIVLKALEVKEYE

Row | pKd | Binder
25 | below the threshold | YRLAQESGLV [ABCC6, O95255]
26 | below the threshold | RKPKPSSSCC [RAB9A, P51151]

Target: T6, LNX2_2, Q8N448
Test: holdup assay
Design: key: below the threshold = too weak to quantify, mostly under pKd 3.1 to 4
Details: plain residues with an end cap or a label only (N-terminal biotin on a linker: ado-ado)

Row | pKd | Binder
27 | below the threshold | YRLAQESGLV [ABCC6, O95255]
28 | below the threshold | RKPKPSSSCC [RAB9A, P51151]

Target: MAGI1_1, Q96QZ7
Test: holdup assay
Design: key: below the threshold = too weak to quantify, mostly under pKd 3.1 to 4
Details: plain residues with an end cap or a label only (N-terminal biotin on a linker: ado-ado)

Chain of MAGI1_1, Q96QZ7 (Q96QZ7 1-106): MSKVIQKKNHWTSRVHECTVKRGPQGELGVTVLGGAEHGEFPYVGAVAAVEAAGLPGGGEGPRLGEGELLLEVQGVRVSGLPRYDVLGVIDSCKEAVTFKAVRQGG

Row | pKd | Binder
29 | below the threshold | YRLAQESGLV [ABCC6, O95255]
30 | below the threshold | RKPKPSSSCC [RAB9A, P51151]

Target: MAGI1_2, Q96QZ7
Test: holdup assay
Design: key: below the threshold = too weak to quantify, mostly under pKd 3.1 to 4
Details: plain residues with an end cap or a label only (N-terminal biotin on a linker: ado-ado)

Chain of MAGI1_2, Q96QZ7 (Q96QZ7 456-580): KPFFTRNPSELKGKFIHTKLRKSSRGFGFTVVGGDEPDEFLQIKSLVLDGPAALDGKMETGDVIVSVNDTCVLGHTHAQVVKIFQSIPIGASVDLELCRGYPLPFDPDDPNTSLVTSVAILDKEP

Row | pKd | Binder
31 | below the threshold | YRLAQESGLV [ABCC6, O95255]
32 | 3.64 | RKPKPSSSCC [RAB9A, P51151]

Target: MAGI3_2, Q5TCQ9
Test: holdup assay
Design: key: below the threshold = too weak to quantify, mostly under pKd 3.1 to 4
Details: plain residues with an end cap or a label only (N-terminal biotin on a linker: ado-ado)

Chain of MAGI3_2, Q5TCQ9 (Q5TCQ9 398-503): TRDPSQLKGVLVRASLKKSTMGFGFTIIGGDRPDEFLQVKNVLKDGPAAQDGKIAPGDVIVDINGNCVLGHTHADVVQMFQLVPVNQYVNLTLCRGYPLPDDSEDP

Row | pKd | Binder
33 | below the threshold | YRLAQESGLV [ABCC6, O95255]
34 | below the threshold | RKPKPSSSCC [RAB9A, P51151]

Target: T7, MPDZ_10, O75970
Test: holdup assay
Design: key: below the threshold = too weak to quantify, mostly under pKd 3.1 to 4
Details: plain residues with an end cap or a label only (N-terminal biotin on a linker: ado-ado)

Row | pKd | Binder
35 | below the threshold | YRLAQESGLV [ABCC6, O95255]
36 | below the threshold | RKPKPSSSCC [RAB9A, P51151]

Target: T8, MPP2, Q14168
Test: holdup assay
Design: key: below the threshold = too weak to quantify, mostly under pKd 3.1 to 4
Details: plain residues with an end cap or a label only (N-terminal biotin on a linker: ado-ado)

Row | pKd | Binder
37 | below the threshold | YRLAQESGLV [ABCC6, O95255]
38 | below the threshold | RKPKPSSSCC [RAB9A, P51151]

Target: T9, NHERF3_4, Q5T2W1
Test: holdup assay
Design: key: below the threshold = too weak to quantify, mostly under pKd 3.1 to 4
Details: plain residues with an end cap or a label only (N-terminal biotin on a linker: ado-ado)

Row | pKd | Binder
39 | below the threshold | YRLAQESGLV [ABCC6, O95255]
40 | below the threshold | RKPKPSSSCC [RAB9A, P51151]

Target: T10, PCLO, Q9Y6V0
Test: holdup assay
Design: key: below the threshold = too weak to quantify, mostly under pKd 3.1 to 4
Details: plain residues with an end cap or a label only (N-terminal biotin on a linker: ado-ado)

Row | pKd | Binder
41 | below the threshold | YRLAQESGLV [ABCC6, O95255]
42 | below the threshold | RKPKPSSSCC [RAB9A, P51151]

Target: T11, RADIL, Q96JH8
Test: holdup assay
Design: key: below the threshold = too weak to quantify, mostly under pKd 3.1 to 4
Details: plain residues with an end cap or a label only (N-terminal biotin on a linker: ado-ado)

Row | pKd | Binder
43 | 4.22 | YRLAQESGLV [ABCC6, O95255]
44 | below the threshold | RKPKPSSSCC [RAB9A, P51151]

Target: TJP1_2, Q07157
Test: holdup assay
Design: key: below the threshold = too weak to quantify, mostly under pKd 3.1 to 4
Details: plain residues with an end cap or a label only (N-terminal biotin on a linker: ado-ado)

Chain of TJP1_2, Q07157 (Q07157 181-274): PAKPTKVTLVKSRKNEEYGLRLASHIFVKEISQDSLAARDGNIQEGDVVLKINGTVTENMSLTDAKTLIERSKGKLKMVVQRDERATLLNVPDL

Row | pKd | Binder
45 | below the threshold | YRLAQESGLV [ABCC6, O95255]
46 | below the threshold | RKPKPSSSCC [RAB9A, P51151]

Target: TJP2_1, Q9UDY2
Test: holdup assay
Design: key: below the threshold = too weak to quantify, mostly under pKd 3.1 to 4
Details: plain residues with an end cap or a label only (N-terminal biotin on a linker: ado-ado)

Chain of TJP2_1, Q9UDY2 (Q9UDY2 24-128): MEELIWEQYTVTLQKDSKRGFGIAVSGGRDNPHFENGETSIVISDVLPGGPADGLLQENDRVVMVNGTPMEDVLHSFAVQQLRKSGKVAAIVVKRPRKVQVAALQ

Row | pKd | Binder
47 | below the threshold | YRLAQESGLV [ABCC6, O95255]
48 | below the threshold | RKPKPSSSCC [RAB9A, P51151]

Target: T12, TX1BP3, O14907
Test: holdup assay
Design: key: below the threshold = too weak to quantify, mostly under pKd 3.1 to 4
Details: plain residues with an end cap or a label only (N-terminal biotin on a linker: ado-ado)

Row | pKd | Binder
49 | below the threshold | YRLAQESGLV [ABCC6, O95255]
50 | 3.89 | RKPKPSSSCC [RAB9A, P51151]
